The target of experiment [1] is T1, human PSMA expressed with an N-terminal hexahistidine tag (6h.hPSMA, R&D) (human, UniProt Q04609 44-750).
T1 construct: Bought soluble protein; also called soluble human PSMA; human PSMA protein
In words: SPR Biacore T-200, 37 C, antibody-capture (anti-human Fc), 6h.hPSMA as analyte. How it is done:
In this example, anti-PSMA antibodies were assessed for their ability to bind to human PSMA. […] Measurements were conducted on a Biacore™ T-200 instrument (GE Healthcare).
Briefly, a CM5 Biacore™ sensor surface was derivatized via amine coupling with a monoclonal mouse anti-human Fc antibody (GE, # BR-1008-39) or monoclonal goat anti-mouse Fc antibody (GE, # BR-1008-38) to capture purified anti-PSMA antibodies. Binding studies were performed in HBSP++ buffer composed of 0.01M HEPES, 0.15M NaCl, 2 mM Ca²⁺, 2 mM Mg²⁺, 0.05% v/v Surfactant P20, pH7.4. Varying concentrations of human PSMA expressed with an N-terminal hexahistidine tag (6h.hPSMA, R&D) prepared in HBSP++ running buffer (ranging from 50 to 0.78 nM, 4-fold dilutions) were injected over the anti-PSMA antibody captured surface at a flow rate of 30 μL/minute. Antibody-reagent association was monitored for 2 minutes while dissociation in HBSP++ running buffer was monitored for 8 minutes.
Kinetic association (kₐ) and dissociation (kd) rate constants were determined by fitting the real-time sensorgrams to a 1:1 binding model using Scrubber 2.0c curve fitting software. Binding dissociation equilibrium constants (KD) and dissociative half-lives (t½) were calculated from the kinetic rate constants as: KD (M)=kd/kₐ; and t_{1/2} (min)=(ln 2/(60*kd).

Experiment [2] has as its target human CD3 expressed on cells (Jurkat cells; human T-cells of PBMC) (human, UniProt P09693 23-182; P20963 22-164). Briefly: cell-based or functional assay.

Where a chain is given by its changes, count along the chain named.

T1 sequence (Q04609 other isoform, or with tags, fused parts or gaps limits assumed): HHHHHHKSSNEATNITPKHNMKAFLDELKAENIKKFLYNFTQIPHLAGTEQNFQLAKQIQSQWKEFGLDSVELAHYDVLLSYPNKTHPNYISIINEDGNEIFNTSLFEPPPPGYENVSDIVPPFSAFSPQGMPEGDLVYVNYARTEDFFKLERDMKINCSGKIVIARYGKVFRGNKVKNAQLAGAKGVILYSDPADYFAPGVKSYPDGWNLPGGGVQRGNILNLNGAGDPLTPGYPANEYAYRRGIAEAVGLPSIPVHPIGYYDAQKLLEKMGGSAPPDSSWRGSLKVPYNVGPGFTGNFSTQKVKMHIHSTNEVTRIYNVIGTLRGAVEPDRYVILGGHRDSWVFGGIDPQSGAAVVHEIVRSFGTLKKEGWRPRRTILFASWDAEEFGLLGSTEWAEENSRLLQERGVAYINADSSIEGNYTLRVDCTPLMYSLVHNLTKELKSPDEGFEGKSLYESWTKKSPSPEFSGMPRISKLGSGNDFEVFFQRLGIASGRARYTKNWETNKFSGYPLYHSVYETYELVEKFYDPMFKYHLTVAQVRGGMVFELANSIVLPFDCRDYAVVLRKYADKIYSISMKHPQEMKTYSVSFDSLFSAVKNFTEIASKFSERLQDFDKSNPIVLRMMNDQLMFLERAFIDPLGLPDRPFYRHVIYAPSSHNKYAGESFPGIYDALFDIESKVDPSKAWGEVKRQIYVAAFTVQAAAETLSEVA
Chain of human CD3 expressed on cells (Jurkat cells; human T-cells of PBMC) (chain, as listed by the source, chain 1 of 4): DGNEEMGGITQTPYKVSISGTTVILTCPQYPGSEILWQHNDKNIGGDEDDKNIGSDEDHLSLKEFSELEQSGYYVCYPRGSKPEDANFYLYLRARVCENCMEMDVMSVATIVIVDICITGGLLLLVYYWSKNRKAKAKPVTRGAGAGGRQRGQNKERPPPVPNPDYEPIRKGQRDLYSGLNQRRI
Chain of human CD3 expressed on cells (Jurkat cells; human T-cells of PBMC) (chain, as listed by the source, chain 2 of 4): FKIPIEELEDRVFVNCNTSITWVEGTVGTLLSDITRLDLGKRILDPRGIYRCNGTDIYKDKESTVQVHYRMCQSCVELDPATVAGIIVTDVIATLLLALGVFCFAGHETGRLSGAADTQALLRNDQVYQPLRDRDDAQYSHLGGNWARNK
Chain of human CD3 expressed on cells (Jurkat cells; human T-cells of PBMC) (P09693 23-182, chain 3 of 4): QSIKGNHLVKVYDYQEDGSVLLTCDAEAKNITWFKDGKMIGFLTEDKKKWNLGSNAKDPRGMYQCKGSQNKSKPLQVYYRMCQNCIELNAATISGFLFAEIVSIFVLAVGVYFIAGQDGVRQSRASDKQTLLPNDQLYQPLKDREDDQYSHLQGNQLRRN
Chain of human CD3 expressed on cells (Jurkat cells; human T-cells of PBMC) (P20963 22-164, chain 4 of 4): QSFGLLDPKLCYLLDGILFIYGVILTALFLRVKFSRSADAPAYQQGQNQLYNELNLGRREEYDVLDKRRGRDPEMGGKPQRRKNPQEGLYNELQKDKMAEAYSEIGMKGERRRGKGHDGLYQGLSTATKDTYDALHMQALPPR

B1: H1H11797P2 (antibody, human IgG1, V domains shown)
VH: QVQLVESGGGVVQPGRSLRLSCAASGFSFSGYGMHWVRQAPGKGLEWVAVTWYDGSNKYYADSVKGRFTISRDNSKNTLYLQMNSLRAEDTAVYYCARDGNWGGPYWYFDLWGRGTLVTVSS
VL: DIQMTQSPSSLSASVGDSVTITCRASQSINNYLNWYQQKPGKAPKLLIYTASSLLSGVPSRFSGSGSGTDFTLTISGLHPEDFATYFCQQSFSTPPITFGQGTRLDIK
notes: human IgG1
Consider B1, for which, in experiment [1], the affinity, expressed as Kd, was 3.74 nM; the koff was determined as 0.00063 s⁻¹; the kon came out at 168000 M⁻¹ s⁻¹; the “t1/2” value was 18.3 min.

B2: H1H11808P2 (antibody, human IgG1, V domains shown)
VH: QVQLVESGGGVVQPGRSLRLSCAASGFPFNSYGMHWVRQAPGKGLEWVAVISYDGSNRYYADSVKGRFTISRDNSKYTLDLHVSSLTTDDTAVYYCARDRRYGKWEQLYPDYLGQGTLVTVSS
VL: B1 VL
notes: human IgG1
Regarding B2, in experiment [1], the Kd was at most 0.0563 nM, the koff is at most 1e-05 s⁻¹, the kon is 178000 M⁻¹ s⁻¹ and the “t1/2” value is at least 1160 min.

B3: H1H11800P2 (antibody, human IgG1, V domains shown)
VH: QVQLVESGGGVVQPGRSLRLSCAASGFTFSSYGMHWVRQAPGKGLEWVAVISYAGNNKYYVDSVKGRFTISRDNSKNTLYLQMNSLRAEDTAVYYCAKDPYYDFLTGSDYFDYWGQGTLVTVSS
VL: B1 VL
notes: human IgG1
As to B3, in experiment [1], binding was put at a Kd of 0.163 nM, the koff stood at 4.1e-05 s⁻¹, the kon is 251000 M⁻¹ s⁻¹ and the “t1/2” value was found to be 282 min.

B4: H1H11838P2 (antibody, human IgG1, V domains shown)
VH: QVQLVESGGGVVQPGRSLRLSCAASGFTFSSYGMHWVRQAPGKGLEWVAFMSYDGSNKFYSDSVKGRFTISRDNSRKMLFLQMNNLRAEDTAVYYCARDQYYDFLTDHGVFDYWGQGTLVTVSS
VL: B1 VL
notes: human IgG1
As to B4, in experiment [1], binding was characterised by a dissociation constant (Kd) of 1.99 nM, the koff turned out to be 0.000471 s⁻¹, the kon was 237000 M⁻¹ s⁻¹ and the “t1/2” value stood at 24.5 min.

B5: H1H11835P2 (antibody, human IgG1, V domains shown)
VH: EVQLVESGGGLVQSGGSLRLSCEASGFTFSNYWMTWIRQGPGKGLEWVANIKPDGTENYYVDSVKGRFTISRDNARNSLYLQMTSLKAEDTAVYYCGRMIQFVINIWGQGTLVTVSS
VL: B1 VL
notes: human IgG1
Take B5: in experiment [1], the dissociation constant (Kd) turned out to be 14 nM, the koff is 0.00246 s⁻¹, the kon stood at 175000 M⁻¹ s⁻¹ and the “t1/2” value worked out at 4.7 min.

B6: H1H11792P2 (antibody, human IgG1, V domains shown)
VH: QVQLVESGGGVVQPGRSLRLSCAASGFTFSSYGMHWVRQPPGKGLEWVAIMSYDGSNKYYADSVKGRFTISRDNSKNTLYLQMNSLRVEDTAVYYCAKDQYYDFLTFDYTLDYWGQGTLVTVSS
VL: B1 VL
notes: human IgG1
As for B6, in experiment [1], binding was put at a Kd of 0.205 nM, the koff amounted to 9.7e-05 s⁻¹, the kon was found to be 473000 M⁻¹ s⁻¹ and the “t1/2” value was found to be 119 min.

B7: H1H11804P2 (antibody, human IgG1, V domains shown)
VH: QVQLVESGGGVVQPGRSLRLSCAASGFTFISYGMHWVRQAPGKGLEWVAVISYDGSNKYYADSVKGRFTISRDNSKNTLFLQMNSLRAEDTAVYYCAKNYDFWNGYVGYYGMDVWGQGTTVTVSS
VL: B1 VL
notes: human IgG1
Turning to B7, in experiment [1], binding was characterised by a dissociation constant (Kd) of 39.4 nM, the off-rate (koff) came out at 0.000801 s⁻¹, the on-rate (kon) was determined as 20300 M⁻¹ s⁻¹ and the “t1/2” value was 14.4 min.

B8: H1H11805P2 (antibody, human IgG1, V domains shown)
VH: EVQLVESGGGLVQPGGSLRLSCVVSGFTFNNYWMSWVRQAPGKGLEWVANIKKDGSEKYYVDSVKGRFTISRDNAKNSLYLQMNSLRAEDTAVYYCARDIMATIIDWGQGTLVTVSS
VL: B1 VL
notes: human IgG1
B8: in experiment [1], the dissociation constant (Kd) is 75.6 nM, the koff was 0.00974 s⁻¹, the on-rate constant (kon) was 129000 M⁻¹ s⁻¹ and the “t1/2” value turned out to be 1.2 min.

B9: H1H11837P2 (antibody, human IgG1, V domains shown)
VH: QVQLVESGGGVVQPGRSLRLSCAASGFTFSSYGMHWVRQAPGKGLEWVTFISYDGNNKYYSDSVKGRFAISRDNSKNTLYLQMNSLRAEDTSVYFCAKDQYYDFLTDFGVFDYWGQGTLVTVSS
VL: B1 VL
notes: human IgG1
Turning to B9, in experiment [1], the dissociation constant Kd turned out to be 1.66 nM, the dissociation rate constant (koff) was 0.000734 s⁻¹, the kon amounted to 441000 M⁻¹ s⁻¹ and the “t1/2” value came out at 15.7 min.

B10: H1H11803P2 (antibody, human IgG1, V domains shown)
VH: QVQLVESGGGVVQPGRSLRLSCAASGFTFSSYGMHWVRQAPGKGLEWVAVIWYDGNNKYYADSVKGRFTISRDNSKKTLYLQMTSLRAEDTAVYYCARDQYYDILTADNTLDYWGQGTLVTVSS
VL: B1 VL
notes: human IgG1
Turning to B10, in experiment [1], the Kd was 1.33 nM, the dissociation rate constant (koff) was determined as 0.000608 s⁻¹, the on-rate (kon) is 457000 M⁻¹ s⁻¹ and the “t1/2” value came out at 19 min.

B11: H1H11836P2 (antibody, human IgG1, V domains shown)
VH: QVQLVESGGGVVQPGRSLRLSCAASGFTFRSYGMHWVRQAPGKGLEWVAFISYDESNKHQADSVKGRFTISRDNSKNTLYLQMNSLRAEDTAVYFCAKDQYYDFLTAYDTLDYWGQGTLVTVSS
VL: B1 VL
notes: human IgG1
Take B11: in experiment [1], the affinity, expressed as Kd, was 0.855 nM; the off-rate constant (koff) came to 0.00028 s⁻¹; the kon is 327000 M⁻¹ s⁻¹; the “t1/2” value was determined as 41.3 min.

B12: H1H11810P2 (antibody, human IgG1, V domains shown)
VH: QVQLVESGGGVVQPGRSLRLSCAASGFTFSSYGMHWVRQAPGKGLEWVAVISYAGNNKYYADSVKGRFTVSRDNSKKTLYLQMNSLRSEDTAVYYCAKDSYYDFLTDPDVLDIWGQGTMVTVSS
VL: B1 VL
notes: human IgG1; also called PSMA-VH-11810 (its HCVR)
For the molecule B12, in experiment [1], the equilibrium dissociation constant (Kd) is at most 0.0199 nM, the off-rate (koff) was at most 1e-05 s⁻¹, the on-rate (kon) came out at 503000 M⁻¹ s⁻¹ and the “t1/2” value is at least 1160 min.

B13: H2M2689N (antibody, mouse IgG2, V domains shown)
VH: QVQLVESGGGVVQPGRSLRLSCAASGFTFSRKGMHWVRQAPVKGLEWVAVISYDGSNKYYADSVKGRFTISRDNSKNTLYLQMNSLTAEDTAVYYCAKEGGHDYGGTFDYWGQGTLVTVSS
VL: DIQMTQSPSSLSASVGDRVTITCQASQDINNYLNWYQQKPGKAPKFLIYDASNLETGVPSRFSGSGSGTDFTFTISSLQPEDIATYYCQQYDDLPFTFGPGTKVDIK
With B13, the “U937 Cytotoxicity Human T-cells” value in experiment [2] was 0 pM.

B14: H1H3465P (antibody, human IgG1, V domains shown)
VH: QVQLVESGGGVVQPGRSLRLSCAASGFTFITYGMHWVRQAPGKGLEWVAIIYYDESNKYYADSVKGRFTISRDISKNTLYLQMNGLRAEDTAVYYCARAPRVAVEEDYSYYYGMDVWGQGTTVTVSS
VL: DIQMTQSPSSLSASVGDRVTITCRASQGIRNDLGWYQQKPGRAPKRLIYGASNLQSGVPSRFSGSGSGTEFTLTISSLQPEDFATYYCLQHNSHPYTFGQGTKLEIK
notes: human IgG1; also called PSMA-VH-3465 (its HCVR)
Regarding B14, in experiment [1], the Kd is 0.227 nM, the koff worked out at 6.06e-05 s⁻¹, the kon was 267000 M⁻¹ s⁻¹ and the “t1/2” value amounted to 191 min.

B15: H2M2690N (antibody, mouse IgG2, V domains shown)
VH: EVQLVESGGGLVQPGRSLRLSCAASGFTFDDYTMHWVRQAPGKGLEWVSGISWNSGSIGYADSVKGRFTISRDNAKKSLYLQMNSLRAEDTALYYCAKDNSGYGHYYYGMDVWGQGTTVTVAS
VL: EIVMTQSPATLSVSPGERATLSCRASQSVSSNLAWYQQKPGQAPRLLIYGASTRATGIPARFSGSGSGTEFTLTISSLQSEDFAVYYCQHYINWPLTFGGGTKVEIK
B15: in experiment [2], the “U937 Cytotoxicity Human T-cells” value is 27.9 pM.

B16: H2M2708N (antibody, mouse IgG2, V domains shown)
VH: QVQLVESGGGVVQPGRSLRLSCAASGFTFRSFGMHWVRQAPGRGLEWVAMIYFDGKNKYYADSVRGRFTISRDNSKNTLYLEMSSLRAEDTAVYFCARGPGYNWLDPWGQGTLVTVSS
VL: B15 VL with A19V, V29I, S31R, I58V, Y86F, Y87H, H90Q, I92N, W94R, K103E
With B16, the “U937 Cytotoxicity Human T-cells” value in experiment [2] is 3.27 pM.

B17: H1M2692N (antibody, mouse IgG1, V domains shown)
VH: EVQLVESGGGLVQPGGSLRLSCAASGFSFDDYTMHWVRQPPGKGLEWVSGISWNSGSIGYADSVKGRFTISRDNAKNSLYLQMNSLRAGDTALYYCAKDNSGYGYYYYYGMDVWGQGTTVTVSS
VL: B15 VL with H90Q, I92Y
Regarding B17, the “U937 Cytotoxicity Human T-cells” value in experiment [2] was found to be 359 pM.

B18: H2M2706N (antibody, mouse IgG2, V domains shown)
VH: B16 VH with F32Y, G33A, R43K, I51V, F53Y, K56N, K58Q, E82Q, S84N, E89D
VL: B15 VL with S31R, E70D, H90Q, I92N, E105V
Regarding B18, the “U937 Cytotoxicity Human T-cells” value in experiment [2] turned out to be 7.91 pM.

B19: H2M2691N (antibody, mouse IgG2, V domains shown)
VH: B15 VH
VL: B15 VL
As to B19, the “U937 Cytotoxicity Human T-cells” value in experiment [2] was 23.4 pM.

B20: H2M2705N (antibody, mouse IgG2, V domains shown)
VH: QVQLVESGGGVVQPGRSLRLACVASGFTFRSYGMHWVRQAPGKGLQWVAMIYYDGKNKYYADSVRGRFTISRDNSKNTLYLQMNNLRVEDTAMYFCARGPGYNWLDPWGQGTLVTVSS
VL: B15 VL with S28R, V29I, I58S, E70D, F83V, H90Q, Y91H, I92H
For the molecule B20, the “U937 Cytotoxicity Human T-cells” value in experiment [2] was determined as 1.73 pM.

B21: H2M2707N (antibody, mouse IgG2, V domains shown)
VH: B20 VH with A21S, V23I, Q46E, K56N, N85S, V88A, E89D, M93V
VL: B15 VL with H90Q, I92N, W94R
Regarding B21, the “U937 Cytotoxicity Human T-cells” value in experiment [2] was found to be 7.21 pM.

The record behind these values is patent US20190127480A1 (Regeneron, published 2019).
